According to paper PMC10246721, “Cryo-EM structures for the Mycobacterium tuberculosis iron-loaded siderophore transporter IrtAB” (Protein & Cell, 2022):

Biological target: T1, IrtA, full length (subunit of full-length Mtb IrtAB) (Mycobacterium tuberculosis H37Rv, UniProt P9WQJ9 1-859)
T1 construct: also called Rv1348
T1 sequence: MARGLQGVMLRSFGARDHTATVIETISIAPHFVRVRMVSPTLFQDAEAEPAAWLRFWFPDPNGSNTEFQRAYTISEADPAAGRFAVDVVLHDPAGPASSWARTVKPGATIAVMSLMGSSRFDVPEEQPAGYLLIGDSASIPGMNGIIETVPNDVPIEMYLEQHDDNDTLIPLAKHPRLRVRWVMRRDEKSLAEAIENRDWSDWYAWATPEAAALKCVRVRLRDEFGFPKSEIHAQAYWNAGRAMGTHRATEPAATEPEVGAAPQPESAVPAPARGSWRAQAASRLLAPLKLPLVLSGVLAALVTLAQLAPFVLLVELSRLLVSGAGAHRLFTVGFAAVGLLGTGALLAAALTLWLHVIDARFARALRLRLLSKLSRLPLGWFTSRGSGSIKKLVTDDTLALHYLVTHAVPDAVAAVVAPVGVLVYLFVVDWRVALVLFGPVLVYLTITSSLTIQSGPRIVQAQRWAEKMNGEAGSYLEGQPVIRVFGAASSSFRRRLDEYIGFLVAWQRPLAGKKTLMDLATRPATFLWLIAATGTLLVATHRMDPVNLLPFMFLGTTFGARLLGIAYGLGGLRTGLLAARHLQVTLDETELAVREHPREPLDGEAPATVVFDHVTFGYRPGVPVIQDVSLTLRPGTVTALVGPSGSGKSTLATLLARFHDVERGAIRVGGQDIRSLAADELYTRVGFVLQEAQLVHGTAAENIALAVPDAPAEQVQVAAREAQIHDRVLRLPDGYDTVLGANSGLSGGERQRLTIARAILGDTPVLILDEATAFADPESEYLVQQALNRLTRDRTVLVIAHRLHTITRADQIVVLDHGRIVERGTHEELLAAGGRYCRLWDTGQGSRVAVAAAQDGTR
Assay: cryo-EM structure; full-length IrtAB without nucleotide, in digitonin, 20 mmol/L MES pH 6.5, 150 mmol/L NaCl; inward-facing
Conditions: both partners purified

B1: IrtB with C-terminal 10x His tag (subunit of Mtb IrtAB) (natural protein)
chain: MIRTWIALVPNDHRARLIGFALLAFCSVVARAVGTVLLVPLMAALFGEAPQRAWLWLGWLSAATVAGWVLDAVTARIGIELGFAVLNHTQHDVADRLPVVRLDWFTAENTATARQAIAATGPELVGLVVNLVTPLTSAILLPAVIALALLPISWQLGVAALAGVPLLLGALWASAAFARRADTAADKANTALTERIIEFARTQQALRAARRVEPARSLVGNALASQHTATMRLLGMQIPGQLLFSIASQLALIVLAGTTAALTITGTLTVPEAIALIVVMVRYLEPFTAVSELAPALESTRATLGRIGSVLTAPVMVAGSGTWRDGAVVPRIEFDDVAFGYDGGSGPVLDGVSFCLQPGTTTAIVGPSGCGKSTILALIAGLHQPTRGRVLIDGTDVATLDARAQQAVCSVVFQHPYLFHGTIRDNVFAADPGASDDQFAQAVRLARVDELIARLPDGANTIVGEAGSALSGGERQRVSIARALLKAAPVLLVDEATSALDAENEAAVVDALAADPRSRTRVIVAHRLASIRHADRVLFVDDGRVVEDGSISELLTAGGRFSQFWRQQHEAAEWQILAE
notes: also called Rv1349
B1: binds.
